The supplement of paper PMC12636428

Test system: Saccharomyces cerevisiae
Test: transcriptional activation domain activity (GFP:mCherry ratio, weighted mean of sorted bins, harmonized to initial dataset scale) (arbitrary fluorescence ratio units); higher = stronger transcriptional activation
Conditions: beta-estradiol 1 µM; induction time 4 h
In short: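 After a 1:5 dilution into SC with 1 uM beta-estradiol and 4 hours at 30 °C, yeast diploids carrying a GFP reporter and URA3-integrated barcoded tiles were sorted into 8 bins by GFP:mCherry ratio. The tiles were fused to an estradiol-inducible synthetic transcription factor. Barcodes were sequenced, tiles below 50 reads were discarded, and activation activity was taken as the read-weighted mean of bin median fluorescence, averaged across barcodes and linearly mapped onto the initial dataset scale.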

Sequence	transcriptional activation domain activity
SFNLLLYGCVLADIGINLSFSCAVSYSHNRKASDVPHILELLFICMLQCCYIG	60000
KLSFRLLVLSSSEILVCFPVYPSFVGYDPIFSGFRVKLLIFLLSLWHLLLLFV	42300
FSVLFSKLFVWGILPYQTVGVVIQHTCQAVFLFVNIYWTFWRNWPWVQSGFFT	80100
ASPDADGNGEVKKKYDPKDPMRPRRKKARRACYACQRAHLTCGDERPCQRCIK	43400
MSLSEWLRMIWVCFGRSTSCTIVRFSFHMRLIHVLIVVVLGTVRRHWLWSFVY	35500
MYKSYIFFYLPLLFNCFIMSFFFLYEMPFFYLGRMLHFLLSLISGSWFFFYLF	50900
MLTLLLLTLIIFLSSTLVLLFFFLIPLFLICLLTFLLIFFSSPRAFFSFPHPT	47800
LILLRLLWPVTLYFFVSLMYSLLSLAFGVPFSRNFGHAGFLIYWMMSWCSMSA	62400
NSTIHNLLELVLLPELCGFCCFSMRFVVMIDLIGTLTLPSSVVYLVYLIYVVI	56700
STVHNLCELVFLPELFGFCCFSMRFFVFIDLLGTLILPATVVYLLYLIITVAT	62500
YDKKTNVLGFDDGTFDNKVFNRTNFEEKAPFDIPLDEFFTELEKHSNVSQFNT	112000
PLYAYTIWSWLCQGVYFTLLTLLSFDQFQSLGEICFIFFELSFGNAMMVTLVS	80300
MLNLHQSCLLLCSLLIITGLGLASTIFIPVNPFYQLLLMENSAFPWIHFVIYC	38500
TMHLNVVFISVVVNGFCSEHGFVSMRLWAVYKSLSLVLWMSFFIVLCWVGMIV	53600
SFSLSVLSFFFFSIWLPLPPLSLSLSLFSPHLFPPLPFTLSLWVQWLYTFSYY	79300
CFYLTTRFWDYKRKSYHYFLFGLCYFVNIMDLFYIWFFRDNVYYFIMCWCLTL	57200
FSAEIAILRWLKGNRQNDYIGALTSINRGLKLMYVHAYQSLVWNRAVSERWAR	57900

Sequence	transcriptional activation domain activity
PEVMHALLFWTSNLLLFGINAIAFSKVSWFITLIRLVVNCRQKVALWMLMVFS	60100
MASSTSPSPSTTSIKSEVAPGRTVACLRCRGRRQFCSKERPQCKKCRDARAEC	28800
MQTKVFVFPLFLHYLYCVIFHLLWILFGIAFIFSLVSIIIYLLIVFAHLFHFV	66700
NLDFDFALPQTATAPDAKTVLPIPELDDAVVESFFSSSTDSTPMFEYENLEDN	91700
MITRCHLIIFLFWLLLLLLLFRCWATFLCISAWLFAKQEKQTFCQPCLLIMRV	38200
LHRYPIIRRGVALQTGKGKRKRMYQLIVVGNGDGLVGYGEGKNEDMGMAASKS	28500
EGAASGTEEAPKPKKKKKQQPRKSKPRIDAASGTEAEPNAATESEAPAAAGAA	16600
LCDNVTTQWREWMFPHNETLPALGQDGINEDNLNETIDNMLIFDFLDDGSENN	109000
EPGEEYHHSNGTNTDNNETTGADDTDDNNNNNNNNNKNGNNSSSTINNNNNNY	35700
MKLVCHSLQLHFLSILVLEDLLIATLRVAQSCITAFFWRNHFSFTCLCLLTML	63200
LLICSVVALVTCLAFLTNLTSMVPNFVLACLPLTAFLIFGTHSDLLRVWCFWW	28700
FDYDMFFRDSSKEGNNLFGEFLEDDDDDKKAANMSDDESSLIKNQLINEEPEL	41400
MADTTDPPAPRKRGRPPKNKEGGATAKPVTLGPDGLPRKRGRPRKNPVVEVAT	20300
MDCLGMEFIGCEIFGAVALIFLFFFLFFFFFIFFHFLLIFLFSFSFFLFFFFV	47200
APQGEEKAPAPRRSKRAKTAAPSDQETEETATKVVAGKAGAGKGKAVAAKAAA	51800
IRLLISKHWLPVLFSFRGFMELTTTVPFLLSTYIPNGRYLYVPYFIRSWVLLL	72800
LQCEGFTLRVPFVVDDTFYALMRCFDFFTIDEDPELWRLWCSLLRYALRLQNG	40200
